According to patent US20250092426, “CAS ENDONUCLEASES AND RELATED METHODS” (Flagship Pioneering Innovations VII, LLC, published 2025):

Molecular target: T1, CasEnd-1 (synthetic construct)
T1 chain: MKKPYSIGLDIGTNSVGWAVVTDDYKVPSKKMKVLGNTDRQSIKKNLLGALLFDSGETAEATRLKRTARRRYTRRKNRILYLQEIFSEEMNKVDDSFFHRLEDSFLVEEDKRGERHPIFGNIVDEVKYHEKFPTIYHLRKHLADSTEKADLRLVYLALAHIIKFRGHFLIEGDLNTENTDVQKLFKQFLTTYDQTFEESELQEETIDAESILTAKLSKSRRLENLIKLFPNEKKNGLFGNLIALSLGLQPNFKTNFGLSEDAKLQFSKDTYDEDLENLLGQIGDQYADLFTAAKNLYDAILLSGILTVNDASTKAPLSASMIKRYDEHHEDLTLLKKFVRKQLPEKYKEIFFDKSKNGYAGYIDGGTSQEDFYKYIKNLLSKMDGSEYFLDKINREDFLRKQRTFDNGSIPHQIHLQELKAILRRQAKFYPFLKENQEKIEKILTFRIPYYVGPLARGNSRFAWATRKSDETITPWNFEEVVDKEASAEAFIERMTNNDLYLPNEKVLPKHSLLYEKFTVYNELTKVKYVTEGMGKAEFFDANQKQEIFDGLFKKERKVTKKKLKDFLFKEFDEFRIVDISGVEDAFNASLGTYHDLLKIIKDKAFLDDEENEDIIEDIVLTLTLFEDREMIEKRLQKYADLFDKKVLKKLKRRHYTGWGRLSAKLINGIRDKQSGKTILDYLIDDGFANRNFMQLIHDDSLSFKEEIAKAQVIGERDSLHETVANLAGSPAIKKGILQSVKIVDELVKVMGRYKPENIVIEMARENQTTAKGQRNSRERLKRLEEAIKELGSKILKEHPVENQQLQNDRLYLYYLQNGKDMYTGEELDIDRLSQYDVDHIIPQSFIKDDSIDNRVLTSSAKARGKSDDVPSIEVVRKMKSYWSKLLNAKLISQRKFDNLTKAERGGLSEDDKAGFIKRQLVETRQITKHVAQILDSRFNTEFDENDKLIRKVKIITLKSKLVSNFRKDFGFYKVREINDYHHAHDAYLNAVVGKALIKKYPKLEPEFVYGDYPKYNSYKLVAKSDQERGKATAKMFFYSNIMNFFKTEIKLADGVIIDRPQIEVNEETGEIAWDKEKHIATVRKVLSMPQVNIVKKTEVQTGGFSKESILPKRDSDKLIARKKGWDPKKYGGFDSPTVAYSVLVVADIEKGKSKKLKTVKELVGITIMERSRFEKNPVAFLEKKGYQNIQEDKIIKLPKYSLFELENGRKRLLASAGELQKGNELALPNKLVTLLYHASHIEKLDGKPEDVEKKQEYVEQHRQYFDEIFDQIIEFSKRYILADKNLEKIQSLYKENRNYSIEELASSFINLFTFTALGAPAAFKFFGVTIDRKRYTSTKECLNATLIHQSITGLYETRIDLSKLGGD
Test: cell_activity; +++; HEK293T; PAM not stated
How it was run: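 BFP-to-GFP conversion via reverse transcriptase fusion with each Cas endonuclease plus template RNA: 200 ng of each plasmid nucleofected into 250,000 BFP-expressing HEK293T cells (program DS-150). Percent GFP+ cells by flow cytometry at day 4 measured editing.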

B1: BFP-to-GFP template RNA ; BFP reporter protospacer (ssRNA ; dsDNA)
RNA: GCCGAAGCACUGCACGCCGUGUUUUAGAGCUAGAAAUAGCAAGUUAAAAUAAGGCUAGUCCGUUAUCAACUUGAAAAAGUGGCACCGAGUCGGUGCACCCUGACGUACGGCGUGCAGUGCUU
DNA 1: GCCGAAGCACTGCACGCCGT
DNA 2: ACGGCGTGCAGTGCTTCGGC
  activity: ≥ 100 % of reference
